Broadly, the EC50 is the concentration that produces a half-maximal response. Broadly, the Kd is the concentration at which binding is half-saturated. One may read the koff as a measure of how fast the partners let go of each other. As usually defined, the kon is a measure of how fast the partners come together. A word on the EC50 (read off the curve): it is the concentration at which the effect is half-maximal. The low end stands for an effect from little substance, the high end for a need for much substance.

Test [1] concerns the target T1, human GPC3 expressed on cells (SK-Hep1::huGPC3; HepG2, Hep3B and MKN-45 tumor cells) (human, UniProt P51654 25-554).
T1 construct: whole, on cells; also called GPC3-positive tumor cells; human GPC3-expressing cells
Kind of test: flow cytometry, SK-Hep1 cells transfected with human GPC3, detection labelled anti-human IgG, GeoMean BL1-H [lower graph]. The protocol: (§1) For flow cytometric analysis, respective cell lines were incubated with an exemplary fusion protein (SEQ ID NOs: 87 and 82), the GPC3 antibody or the CD137 specific lipocalin mutein (Fc fusion) as included in the fusion protein (SEQ ID NOs: 81 and 82 and SEQ ID NO: 98, respectively), a reference CD137 antibody SEQ ID NOs: 26 and 27, or an isotype control (SEQ ID NOs: 24 and 25) and detected using a fluorescently labeled anti-human IgG antibody in FACS analysis as described in the following:
(§2) 5×10⁴ cells per well were incubated for 1 h in ice-cold PBS containing 5% fetal calf serum (PBS-FCS). A dilution series of the testing molecule were added to the cells and incubated for 1 h on ice. Cells were washed twice with PBS and then incubated with a goat anti-hlgG Alexa647-labeled antibody or goat anti-hlgG Alexa488-labeled antibody for 30 min on ice. Cells were subsequently washed and analyzed using iQue Flow cytometer (Intellicyte Screener). Mean geometric fluorescent signals were plotted and fitted with Graphpad software. The geometric means of the fluorescence intensity were used to calculate EC₅₀ values using a four-parameter logistic regression with bottom fixed to background.

The target of test [2] is T2, human CD137 expressed on cells (Flp-In-CHO::huCD137; NFkB-luc2/CD137 Jurkat cells) (human, UniProt Q07011 24-255). Kind of test: cell-based or functional assay.
T2 sequence (Q07011 24-255): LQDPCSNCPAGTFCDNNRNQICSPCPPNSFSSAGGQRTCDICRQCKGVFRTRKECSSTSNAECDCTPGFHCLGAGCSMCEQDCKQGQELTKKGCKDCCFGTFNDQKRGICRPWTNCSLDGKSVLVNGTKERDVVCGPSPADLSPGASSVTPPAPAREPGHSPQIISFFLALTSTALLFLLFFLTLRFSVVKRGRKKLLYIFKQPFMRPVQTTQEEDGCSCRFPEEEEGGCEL
Test [3] addresses T2, human CD137 expressed on cells …. Kind of test: flow cytometry on Flp-In-CHO::huCD137 cells, anti-human IgG detection. As for the experimental part: as §1, §2
A general note: In flow cytometry, cells or beads pass a laser one at a time.

Test [4] deals with T1, human GPC3 expressed on cells …. Kind of test: flow cytometry on SK-Hep1::huGPC3 cells, anti-human IgG detection. The protocol:
as §1, §2

In test [5] the target is T3, recombinant human GPC3 (huGPC3) (R&D Systems) (human, UniProt P51654 25-559).
T3 construct: also called biotinylated huGPC3
T3 sequence (P51654 25-559 limits assumed): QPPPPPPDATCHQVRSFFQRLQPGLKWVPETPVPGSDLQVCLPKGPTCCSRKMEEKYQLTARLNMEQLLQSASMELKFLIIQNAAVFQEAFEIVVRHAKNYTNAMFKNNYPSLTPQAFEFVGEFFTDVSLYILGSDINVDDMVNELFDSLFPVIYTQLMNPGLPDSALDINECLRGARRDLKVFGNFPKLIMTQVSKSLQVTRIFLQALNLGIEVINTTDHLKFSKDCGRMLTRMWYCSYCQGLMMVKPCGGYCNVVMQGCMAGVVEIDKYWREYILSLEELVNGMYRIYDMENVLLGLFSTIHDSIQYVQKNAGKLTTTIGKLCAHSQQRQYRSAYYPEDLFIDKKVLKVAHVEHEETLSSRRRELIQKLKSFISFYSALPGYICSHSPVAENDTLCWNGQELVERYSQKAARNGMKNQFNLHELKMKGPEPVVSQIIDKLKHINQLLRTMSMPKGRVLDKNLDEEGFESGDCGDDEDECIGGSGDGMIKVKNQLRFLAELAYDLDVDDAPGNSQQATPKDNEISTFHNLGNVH
Kind of test: SPR (Biacore T200), binder captured by anti-human IgG Fc, huGPC3 as analyte, 1:1 model. The protocol: (§3) The anti-human IgG Fc antibody (GE Healthcare) was immobilized on a CM5 sensor chip using standard amine chemistry: the carboxyl groups on the chip were activated using 1-ethyl-3-(3-dimethylaminopropyl)-carbodiimide (EDC) and N-hydroxysuccinimide (NHS). Subsequently, anti-human IgG Fc antibody solution (GE Healthcare) at a concentration of 25 μg/mL in 10 mM sodium acetate (pH 5.0) was applied at a flow rate of 5 μL/min until an immobilization level of 6000-10000 resonance units (RU) was achieved. Residual non-reacted NHS-esters were blocked by passing a solution of 1M ethanolamine across the surface. The reference channel was treated in an analogous manner. Subsequently, testing fusion proteins (SEQ ID NOs: 87 and 82 and CD137Ac1-Fusion 1) or the GPC3 antibody as included in the fusion protein (SEQ ID NOs: 81 and 82) at 0.2 μg/ml in HBS-EP+ buffer was captured by the anti-human IgG-Fc antibody at the chip surface for 180 s at a flow rate of 10 μL/min. After each capture step, the needle was washed.
(§4) The binding assay was carried out with a contact time of 180 s, a dissociation time of 900 s, and a flow rate of 30 μL/min. After each injection, the needle was cleaned with 40 mM NaOH+20% isopropanol. All measurements were performed at 25° C. […] Prior to the protein measurements, three startup cycles were performed for conditioning purposes. Data were evaluated with Biacore T200 Evaluation software (v2.0). Double referencing was used and the 1:1 binding model was used to fit the raw data.

The target in test [6] is T3, recombinant human GPC3 (huGPC3) (R&D …). Kind of test: ELISA, huGPC3 coated, detection anti-human IgG Fc-HRP. As for the experimental part:
(§5) Recombinant huGPC3 (R&D Systems) at the concentration of 1 μg/mL in PBS was coated overnight on microtiter plates at 4° C. After five washes with 100 μL PBS-0.05% T (PBS supplemented with 0.05% (v/v) Tween 20), the plates were blocked with 2% BSA (w/v) in PBS-0.1% T (PBS-0.1% T-2% BSA) for 1 h at room temperature. After washing with 100 μL PBS-0.05% T (PBS supplemented with 0.05% (v/v) Tween 20) five times, exemplary fusion proteins (SEQ ID NOs: 87 and […] and CD137Ac1-Fusion 1 to 7) or the GPC3 antibody as include in the fusion proteins (SEQ ID NOs: 81 and 82) at different concentrations were added to the wells and incubated for 1 h at room temperature, followed by another wash step. Bound molecules under study were detected by incubation with 1:5000 diluted anti-human IgG Fc-HRP (Jackson Laboratory) in PBS-0.1% T-2% BSA. After an additional wash step, fluorogenic HRP substrate (QuantaBlu, Thermo) was added to each well and the fluorescence intensity was detected using a fluorescence microplate reader.
Exemplary results are depicted in FIG. 2A-2D, together with the fit curves resulting from a 1:1 binding sigmoidal fit, where the EC₅₀ value and the maximum signal were free parameters, and the slope was fixed to unity.

The target of test [7] is T4, huCD137-His (recombinant human CD137 with C-terminal polyhistidine tag, R&D Systems) (human, UniProt Q07011 24-186).
T4 construct: also called biotinylated huCD137-His; not shown: C-terminal polyhistidine tag
In words: ELISA, huCD137-His coated, binder titrated to 100 nM, detection anti-NGAL-HRP per paragraph 342 (the antibody itself carries no lipocalin mutein) [upper graph].

Test [8] deals with T1, human GPC3 expressed on cells …. In words: flow cytometry, SK-Hep1 cells transfected with human GPC3, detection labelled anti-human IgG, GeoMean RL1-H [upper graph]. As for the experimental part:
as §1, §2

Test [9] has the same target. Kind of test: flow cytometry on HepG2 tumor cells (GPC3 high). As for the experimental part: as §2
(§6) For flow cytometric analysis, tumor cell lines with different GPC3 expression levels (high to moderate expression: HepG2>Hep3B>MKN-45) and GPC3 negative cell line NCI-N87 were incubated with an exemplary fusion protein SEQ ID NOs: 87 and 82, the GPC3 antibody or the CD137 specific lipocalin mutein (Fc fusion) as included in the fusion protein (SEQ ID NOs: 81 and 82 and SEQ ID NO: 98, respectively), a reference CD137 antibody SEQ ID NOs: 26 and 27, or an isotype control (SEQ ID NO: 24 and 25), and detected using a fluorescently labeled anti-human IgG antibody as described in Example 6.

For test [10] the target is unchanged. Kind of test: flow cytometry on MKN-45 tumor cells (GPC3 moderate). As for the experimental part: as §2, §6
In test [11] the target is T5, recombinant cynomolgus GPC3 (cyGPC3) (R&D Systems) (cynomolgus, UniProt A0A2K5VK50 24-558). In words: ELISA, cyGPC3 coated. The protocol: as §5
The same ELISA setup was also employed to determine the binding potency of fusion proteins to cynomolgus GPC3 and huCD137, where recombinant cyGPC3 (R&D Systems) or huCD137-His (recombinant human CD137 with C-terminal polyhistidine tag, R&D Systems) was instead coated on a microtiter plate. The testing agents were similarly titrated and bound agents were detected via anti-NGAL-HRP. […]
On the technique in general: In an ELISA, binding on a coated surface is turned into a signal by an enzyme label.

The target in test [12] is T2, human CD137 expressed on cells …. In words: flow cytometry, CHO cells transfected with human CD137, detection labelled anti-human IgG, GeoMean RL1-H [upper graph]. As for the experimental part: as §1, §2
The target in test [13] is T1, human GPC3 expressed on cells …. Kind of test: flow cytometry on Hep3B tumor cells (GPC3 positive). As for the experimental part: as §2, §6
For test [14], the target named is T5, recombinant cynomolgus GPC3 (cyGPC3) …. In words: SPR (Biacore T200), binder captured by anti-human IgG Fc, cyGPC3 as analyte, 1:1 model. The protocol: as §3, §4
For orientation: Surface plasmon resonance follows binding to a sensor surface in real time, without labels.

T1 sequence (P51654 25-554 limits assumed): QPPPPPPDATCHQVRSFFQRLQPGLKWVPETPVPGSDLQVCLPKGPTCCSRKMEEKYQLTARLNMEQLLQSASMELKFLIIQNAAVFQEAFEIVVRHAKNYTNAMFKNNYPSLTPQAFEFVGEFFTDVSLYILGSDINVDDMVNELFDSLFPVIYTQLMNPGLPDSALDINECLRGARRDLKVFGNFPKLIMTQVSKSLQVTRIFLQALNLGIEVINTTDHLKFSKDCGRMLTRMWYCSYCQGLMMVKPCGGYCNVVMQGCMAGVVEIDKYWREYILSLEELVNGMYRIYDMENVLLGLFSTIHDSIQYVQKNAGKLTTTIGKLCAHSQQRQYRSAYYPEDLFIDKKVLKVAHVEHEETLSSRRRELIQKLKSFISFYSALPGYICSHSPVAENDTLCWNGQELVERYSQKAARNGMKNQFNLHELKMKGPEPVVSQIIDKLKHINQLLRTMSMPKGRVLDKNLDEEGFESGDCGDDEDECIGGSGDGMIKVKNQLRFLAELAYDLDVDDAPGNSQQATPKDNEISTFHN

B1: reference CD137 antibody (SEQ ID NOs: 26 and 27) (antibody, human IgG4 S228P, kappa, V domains shown)
VH: QVQLQQWGAGLLKPSETLSLTCAVYGGSFSGYYWSWIRQSPEKGLEWIGEINHGGYVTYNPSLESRVTISVDTSKNQFSLKLSSVTAADTAVYYCARDYGPGNYDWYFDLWGRGTLVTVSS
VL: EIVLTQSPATLSLSPGERATLSCRASQSVSSYLAWYQQKPGQAPRLLIYDASNRATGIPARFSGSGSGTDFTLTISSLEPEDFAVYYCQQRSNWPPALTFGGGTKVEIKR
Take B1: the binding result in [1] is reported as “no binding (tested: 500 nM)”. In [2], the “EC50, CD137 Bioassay (NFkB-luc2/CD137 Jurkat cells co-cultured with Hep3B)” value was 1.39 nM; the “EC50, CD137 Bioassay (NFkB-luc2/CD137 Jurkat cells co-cultured with HepG2)” value worked out at 0.94 nM; the “EC50, CD137 Bioassay (NFkB-luc2/CD137 Jurkat cells co-cultured with MKN-45)” value came to 1.47 nM; the “EC50, CD137 Bioassay (NFkB-luc2/CD137 Jurkat cells co-cultured with NCI-N87)” value is 1.67 nM. In test [3], the concentration giving a half-maximal response (EC50) came out at 9.61 nM.

B2: GPC3 antibody as included in the fusion protein (SEQ ID NOs: 81 and 82) (antibody, human IgG4 S228P, kappa, F234A L235A, V domains shown)
VH: QVQLVQSGAEVKKPGASVKVSCKASGYTFTDYEMHWVRQAPGQGLEWMGALDPKTGDTAYSQKFKGRVTLTADKSTSTAYMELSSLTSEDTAVYYCTRFYSYTYWGQGTLVTLVS
VL: DVVMTQSPLSLPVTPGEPASISCRSSQSLVHSNRNTYLHWYLQKPGQSPQLLIYKVSNRFSGVPDRFSGSGSGTDFTLKISRVEAEDVGVYYCSQNTHVPPTFGQGTKLEIKR
notes: also called GPC3 specific antibody
For B2, the EC50 in test [4] turned out to be 19.9 nM; in test [6], 0.13 nM; in [9], 16.7 nM; in test [10] it was 1.46 nM; in test [11], 0.23 nM; in [13], 6.35 nM. Besides, the dissociation constant Kd in test [5] came to 0.686 nM; in [14] it was 0.737 nM. Further, the values for the koff in test [5] and in test [14] were 0.000248 s⁻¹ and 0.000151 s⁻¹, respectively. For the same molecule, the kon in test [5] was 361000 M⁻¹ s⁻¹; in [14], 205000 M⁻¹ s⁻¹. For the same molecule, the binding result in test [7] and in [12] was “no binding (tested: 100 nM)” each time. Besides, the “EC50 (read off the curve)” value in [8] was approximately 5 nM.

Source of the values: patent publication US20220153864A1 (Pieris, published 2022).
